Source: article PMC7430590 (bioRxiv, 2020)

Legend:
[1] = biological target: SARS-CoV-2 S protein-RBD-mFc (SARS-CoV-2, early reference sequence …, UniProt P0DTC2); assay: SPR
[2] = biological target: receptor binding domain (RBD; residues 319–541) of the SARS-CoV-2 spike (S) protein (SARS-CoV-2, UniProt P0DTC2); assay: crystal structure
[3] = biological target: Fc fusion protein of the RBD-SD1 region of SARS-CoV (SARS-CoV, strain not named, UniProt P59594); assay: ELISA

B1: CV07–209 (antibody, V domains shown)
VH: QVQLVESGGGLVKPGGSLRLSCAASGFTFSDYYMSWIRQAPGKGLEWVSYISSSVSTIYYADSVKGRFTISRDNAKNSLYLQMNSLRAEDTAVYYCARDGVIPPRFDYWGQGTLVTVSS
VL: not shown
- Kd [1]: 6 pM

B2: CV07–270 Fab (Fab, V domains shown)
VH: QVQLVESGGGLVKPGGSLRLSCAASGFTFSDYYMTWIRQAPGKGLEWVSYISSSGSTIYYADSVKGRFTISRDNAKNSLYLQMNSLRAEDTAVYYCARARGSSGWYRIGTRWGNWFDPWGQGTLVTVSS
VL: QSALTQPASVSGSPGQSITISCTGTSSDVGGYNYVSWYQQHPGKAPKLMIYEVSNRPSGVSNRFSGSKSGNTASLTISGLQAEDEADYYCSSYTSSSNVVFGGGTMLTVL
- binding result [2]: binds

B3: CV38–142 (antibody, V domains shown)
VH: EVQLVQSGAEVKKPGESLKISCQGSGYSFTSYWIGWVRQMPGKGLEWMGIIYPGESDTRYSSSFQGHVTISADKSISTAYLQWSSLKASDTAMYYCARIRGVYSSGWIGGDYWGQGTLVTVSS
VL: not shown
- binding result [3]: binds
